Details in all cases: both partners purified
Test [1] has as its target T1, His-SUMO-FGF23 (N-terminal domain of human FGF23, wild type) (Homo sapiens, UniProt Q9GZV9).
T1 construct: FGF23, human, N-terminal domain; also called wild-type FGF23; source: E. coli BL21(DE3), purified (Ni-NTA); not shown: His, N-terminal, kept; SUMO, N-terminal, kept
As to the kind of experiment: ELISA; spot-check ELISA: FGF23 coated at 2 µg/mL on Maxisorp plates (4 °C overnight), Burosumab or its alanine mutants at two concentrations (0.04 and 1.2 µg/mL), room temperature 2 h, anti-human IgG H&L-HRP, A450; fold change from A450 against wild-type Burosumab. For orientation: An ELISA detects its analyte on a solid surface through an enzyme-linked reagent.

Test [2] deals with T2, His-SUMO-FGF23 Y124A (N-terminal domain of human FGF23) (Homo sapiens, UniProt Q9GZV9, Y124A).
T2 construct: FGF23, human, N-terminal domain; source: E. coli BL21(DE3), purified (Ni-NTA); not shown: His, N-terminal, kept; SUMO, N-terminal, kept
As to the kind of experiment: ELISA; indirect ELISA: FGF23 or its mutants coated at 2 µg/mL on Maxisorp plates (4 °C overnight), Burosumab or its variants three-fold serially diluted in PBS from 9 µg/mL, room temperature 2 h, anti-human IgG H&L-HRP, A450; fold change from Kd values against the wild type.

Test [3] concerns the target T3, His-SUMO-FGF23 H117A (N-terminal domain of human FGF23) (Homo sapiens, UniProt Q9GZV9, H117A).
T3 construct: FGF23, human, N-terminal domain; source: E. coli BL21(DE3), purified (Ni-NTA); not shown: His, N-terminal, kept; SUMO, N-terminal, kept
Described as above.

Test [4] addresses T4, His-SUMO-FGF23 R160A-R161A (N-terminal domain of human FGF23) (Homo sapiens, UniProt Q9GZV9, R160A | R161A).
T4 construct: FGF23, human, N-terminal domain; also called combined R160A and R161A; double alanine mutant; source: E. coli BL21(DE3), purified (Ni-NTA); not shown: His, N-terminal, kept; SUMO, N-terminal, kept
Described as above.

In test [5] the target is T1, His-SUMO-FGF23 (N-terminal domain of …). The test is described as above.

These results are taken from PMC9427789, “Prediction of the structural interface between fibroblast growth factor23 and Burosumab using alanine scanning and molecular docking” (Scientific Reports, 2022).

T1 sequence (Q9GZV9 25-204): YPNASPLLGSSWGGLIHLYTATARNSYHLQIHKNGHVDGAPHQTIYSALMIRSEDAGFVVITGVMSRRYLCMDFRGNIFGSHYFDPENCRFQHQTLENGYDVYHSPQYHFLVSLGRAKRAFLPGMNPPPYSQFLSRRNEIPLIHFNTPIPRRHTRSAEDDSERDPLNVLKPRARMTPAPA
T2 sequence (Q9GZV9 25-204 Y124A): as the sequence (Q9GZV9 25-204) above, with Y100A counted along it
T4 sequence (Q9GZV9 25-204 R160A/R161A): as the sequence (Q9GZV9 25-204) above, with R136A, R137A counted along it
T3 sequence (Q9GZV9 25-204 H117A): as the sequence (Q9GZV9 25-204) above, with H93A counted along it

B1: Burosumab (wild type) (antibody, V domains shown)
VH: QVQLVQSGAEVKKPGASVKVSCKASGYTFTNHYMHWVRQAPGQGLEWMGIINPISGSTSNAQKFQGRVTMTRDTSTSTVYMELSSLRSEDTAVYYCARDIVDAFDFWGQGTMVTVSS
VL: AIQLTQSPSSLSASVGDRVTITCRASQGISSALVWYQQKPGKAPKLLIYDASSLESGVPSRFSGSGSGTDFTLTISSLQPEDFATYYCQQFNDYFTFGPGTKVDIK
notes: heavy chain of Burosumab; light chain of Burosumab; Whole antibody, detected with anti-human IgG H&L. The results say HEK293T, the methods HEK293-F FreeStyle; Residue numbers are Chothia; also called Crysvita; WT Burosumab; source: HEK293-F FreeStyle, transiently transfected, purified (Protein A agarose)
Consider B1, for which the binding result in test [1] is “binds”. Also, the figures for the “fold decrease in binding against wild-type FGF23” value in test [2], in test [3] and in test [4] were ~50 fold, > 100 fold and 7 fold, respectively.

B2: Burosumab VL:A32S (antibody, V domains shown)
VH: QVQLVQSGAEVKKPGASVKVSCKASGYTFTNHYMHWVRQAPGQGLEWMGIINPISGSTSNAQKFQGRVTMTRDTSTSTVYMELSSLRSEDTAVYYCARDIVDAFDFWGQGTMVTVSS
VL: AIQLTQSPSSLSASVGDRVTITCRASQGISSSLVWYQQKPGKAPKLLIYDASSLESGVPSRFSGSGSGTDFTLTISSLQPEDFATYYCQQFNDYFTFGPGTKVDIK
notes: as the heavy chain of m1; as the light chain of m1; source: HEK293-F FreeStyle, transiently transfected, purified (Protein A agarose)
With B2, in test [5], the “fold improvement of binding affinity against wild-type Burosumab” value turned out to be 1.6 fold.

B3: Burosumab VL:F96A (antibody, V domains shown)
VH: QVQLVQSGAEVKKPGASVKVSCKASGYTFTNHYMHWVRQAPGQGLEWMGIINPISGSTSNAQKFQGRVTMTRDTSTSTVYMELSSLRSEDTAVYYCARDIVDAFDFWGQGTMVTVSS
VL: AIQLTQSPSSLSASVGDRVTITCRASQGISSALVWYQQKPGKAPKLLIYDASSLESGVPSRFSGSGSGTDFTLTISSLQPEDFATYYCQQFNDYATFGPGTKVDIK
notes: as the heavy chain of m1; as the light chain of m1; also called F96A (LCDR3); source: HEK293-F FreeStyle, transiently transfected, purified (Protein A agarose)
With B3, the “fold decrease in binding against wild-type Burosumab” value in test [1] is 2.32 fold.

B4: Burosumab variant with combined VH:V97A and VL:A32S mutations (antibody, V domains shown)
VH: QVQLVQSGAEVKKPGASVKVSCKASGYTFTNHYMHWVRQAPGQGLEWMGIINPISGSTSNAQKFQGRVTMTRDTSTSTVYMELSSLRSEDTAVYYCARDIADAFDFWGQGTMVTVSS
VL: AIQLTQSPSSLSASVGDRVTITCRASQGISSSLVWYQQKPGKAPKLLIYDASSLESGVPSRFSGSGSGTDFTLTISSLQPEDFATYYCQQFNDYFTFGPGTKVDIK
notes: as the heavy chain of m1; as the light chain of m1; also called combined Burosumab variant; double mutant; source: HEK293-F FreeStyle, transiently transfected, purified (Protein A agarose)
As for B4, the “fold improvement of binding against wild-type Burosumab” value in test [5] was determined as 3.7 fold.

B5: Burosumab VH:V97A (antibody, V domains shown)
VH: QVQLVQSGAEVKKPGASVKVSCKASGYTFTNHYMHWVRQAPGQGLEWMGIINPISGSTSNAQKFQGRVTMTRDTSTSTVYMELSSLRSEDTAVYYCARDIADAFDFWGQGTMVTVSS
VL: AIQLTQSPSSLSASVGDRVTITCRASQGISSALVWYQQKPGKAPKLLIYDASSLESGVPSRFSGSGSGTDFTLTISSLQPEDFATYYCQQFNDYFTFGPGTKVDIK
notes: as for B2
Take B5: in test [1], the “fold improvement of binding affinity against wild-type Burosumab” value is 1.2 fold.

B6: Burosumab VH:D98A (antibody, V domains shown)
VH: QVQLVQSGAEVKKPGASVKVSCKASGYTFTNHYMHWVRQAPGQGLEWMGIINPISGSTSNAQKFQGRVTMTRDTSTSTVYMELSSLRSEDTAVYYCARDIVAAFDFWGQGTMVTVSS
VL: AIQLTQSPSSLSASVGDRVTITCRASQGISSALVWYQQKPGKAPKLLIYDASSLESGVPSRFSGSGSGTDFTLTISSLQPEDFATYYCQQFNDYFTFGPGTKVDIK
notes: as for B2
B6: the “fold decrease in binding against wild-type Burosumab” value in test [1] is 2.62 fold.

B7: Burosumab VL:D50A (antibody, V domains shown)
VH: QVQLVQSGAEVKKPGASVKVSCKASGYTFTNHYMHWVRQAPGQGLEWMGIINPISGSTSNAQKFQGRVTMTRDTSTSTVYMELSSLRSEDTAVYYCARDIVDAFDFWGQGTMVTVSS
VL: AIQLTQSPSSLSASVGDRVTITCRASQGISSALVWYQQKPGKAPKLLIYAASSLESGVPSRFSGSGSGTDFTLTISSLQPEDFATYYCQQFNDYFTFGPGTKVDIK
notes: as the heavy chain of m1; as the light chain of m1; also called D50A (LCDR2); source: HEK293-F FreeStyle, transiently transfected, purified (Protein A agarose)
Take B7: in test [1], the binding result is on record as “no binding” and the “fold decrease in binding against wild-type Burosumab” value is > 100 fold.
